In article PMC3078326:

T1: Elk-1 Ets domain (UniProt P19419 5-86)
T1 sequence: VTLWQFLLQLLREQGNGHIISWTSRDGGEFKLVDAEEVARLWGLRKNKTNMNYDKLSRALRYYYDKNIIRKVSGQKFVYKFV

B1: IR5 WT (dsDNA)
DNA 1: CTCACTTCCGCGTCCCGCCGC
DNA 2: GCGGCGGGACGCGGAAGTGAG
B2: IR5 MT2 (dsDNA)
DNA 1: CTCACGGCCGCGTCCCGCCGC
DNA 2: GCGGCGGGACGCGGCCGTGAG
B3: IR5 MT1 (dsDNA)
DNA 1: CTCACTTTTGCGTCCCGCCGC
DNA 2: GCGGCGGGACGCAAAAGTGAG

What was measured:
Elk-1 Ets domain = target: T1, Elk-1 Ets domain; assay: EMSA
PU.1 Ets domain [1] = target: T2, PU.1 Ets domain (UniProt P17947 170-253); assay: EMSA
PU.1 Ets domain [2] = target: T2, PU.1 Ets domain; assay: competition

Binder	binding result (Elk-1 Ets domain)	binding result (PU.1 Ets domain [1])	binding result (PU.1 Ets domain [2])
B1	no binding	binds	
B2			no binding
B3			no binding
